Reference: paper PMC3249508 (Journal of Molecular Biology, 2011)
Like-named read-outs stand apart in the source and are kept apart here.

T1: DDX1 (1–428) (human, UniProt Q92499 1-428)
T1 sequence: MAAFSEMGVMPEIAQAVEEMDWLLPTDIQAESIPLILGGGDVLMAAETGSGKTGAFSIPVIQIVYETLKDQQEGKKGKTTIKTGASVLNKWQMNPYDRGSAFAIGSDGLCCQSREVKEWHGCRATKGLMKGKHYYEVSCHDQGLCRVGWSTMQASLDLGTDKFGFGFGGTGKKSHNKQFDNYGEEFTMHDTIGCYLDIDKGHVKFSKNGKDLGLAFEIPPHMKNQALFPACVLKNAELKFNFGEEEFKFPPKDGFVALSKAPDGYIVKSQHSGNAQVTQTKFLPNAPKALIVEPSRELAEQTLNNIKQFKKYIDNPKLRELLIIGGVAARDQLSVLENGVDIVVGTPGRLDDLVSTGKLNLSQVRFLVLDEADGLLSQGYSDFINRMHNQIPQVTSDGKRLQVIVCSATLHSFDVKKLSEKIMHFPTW

B1: recombinant full-length human DDX1 (enzyme)
chain: MAAFSEMGVMPEIAQAVEEMDWLLPTDIQAESIPLILGGGDVLMAAETGSGKTGAFSIPVIQIVYETLKDQQEGKKGKTTIKTGASVLNKWQMNPYDRGSAFAIGSDGLCCQSREVKEWHGCRATKGLMKGKHYYEVSCHDQGLCRVGWSTMQASLDLGTDKFGFGFGGTGKKSHNKQFDNYGEEFTMHDTIGCYLDIDKGHVKFSKNGKDLGLAFEIPPHMKNQALFPACVLKNAELKFNFGEEEFKFPPKDGFVALSKAPDGYIVKSQHSGNAQVTQTKFLPNAPKALIVEPSRELAEQTLNNIKQFKKYIDNPKLRELLIIGGVAARDQLSVLENGVDIVVGTPGRLDDLVSTGKLNLSQVRFLVLDEADGLLSQGYSDFINRMHNQIPQVTSDGKRLQVIVCSATLHSFDVKKLSEKIMHFPTWVDLKGEDSVPDTVHHVVVPVNPKTDRLWERLGKSHIRTDDVHAKDNTRPGANSPEMWSEAIKILKGEYAVRAIKEHKMDQAIIFCRTKIDCDNLEQYFIQQGGGPDKKGHQFSCVCLHGDRKPHERKQNLERFKKGDVRFLICTDVAARGIDIHGVPYVINVTLPDEKQNYVHRIGRVGRAERMGLAISLVATEKEKVWYHVCSSRGKGCYNTRLKEDGGCTIWYNEMQLLSEIEEHLNCTISQVEPDIKVPVDEFDGKVTYGQKRAAGGGSYKGHVDILAPTVQELAALEKEAQTSFLHLGYLPNQLFRTF

What was measured:
SEC = biological target: the molecule itself; assay: SEC
[1] = biological target: B1; assay: fluorescence polarisation
[2] = biological target: B1; assay: fluorescence polarisation; remark: listed apart in the source
bovine serum albumin = bovine serum albumin (bovine, UniProt P02769 25-607); assay: fluorescence polarisation
bovine serum albumin, sequence (P02769 25-607): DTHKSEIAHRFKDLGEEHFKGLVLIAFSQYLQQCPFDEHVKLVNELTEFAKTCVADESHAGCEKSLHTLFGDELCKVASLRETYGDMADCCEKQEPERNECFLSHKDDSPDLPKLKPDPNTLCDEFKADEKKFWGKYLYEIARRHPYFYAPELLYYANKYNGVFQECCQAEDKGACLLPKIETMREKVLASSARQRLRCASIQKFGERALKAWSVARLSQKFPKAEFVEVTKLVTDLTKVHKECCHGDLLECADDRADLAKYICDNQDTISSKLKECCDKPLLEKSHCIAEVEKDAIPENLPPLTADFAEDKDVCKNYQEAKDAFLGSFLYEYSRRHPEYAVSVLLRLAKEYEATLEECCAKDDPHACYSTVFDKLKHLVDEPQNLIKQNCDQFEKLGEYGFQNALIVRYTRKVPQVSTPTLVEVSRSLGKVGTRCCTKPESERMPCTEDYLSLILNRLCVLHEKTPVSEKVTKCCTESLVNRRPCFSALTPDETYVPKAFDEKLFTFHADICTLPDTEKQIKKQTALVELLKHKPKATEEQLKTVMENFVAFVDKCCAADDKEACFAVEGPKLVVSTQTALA

[3] = biological target: B1; assay: fluorescence polarisation; remark: listed apart in the source
DDX1 (1–428) = biological target: T1, DDX1 (1–428); assay: fluorescence polarisation

| Binder | binding result (SEC) | Kd [1] | Kd [2] | Kd (bovine serum albumin) | Kd [3] | Kd (DDX1 (1–428)) |
| --- | --- | --- | --- | --- | --- | --- |
| B1 | binds |  |  |  |  |  |
| Alexa-488-labeled HIV-1 Rev protein (natural protein, Alexa-488 label (site not stated)) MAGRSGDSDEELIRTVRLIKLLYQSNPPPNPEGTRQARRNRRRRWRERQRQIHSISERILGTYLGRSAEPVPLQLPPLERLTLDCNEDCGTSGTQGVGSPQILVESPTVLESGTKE |  | 14.7 nM | 53 nM | > 500 nM | 36 nM | 43 nM |
